Source: the Immune Epitope Database (IEDB)

Legend:
Assay in all cases: IEDB peptide-MHC binding, purified MHC/competitive/radioactivity; filed as Kd, often an IC50 or EC50 that approximates it; ≥ and ≤ were set here for values at or beyond the usual limits of such assays
[1] = target: HLA-A*68:01
[2] = target: HLA-A*11:01
[3] = target: HLA-A*33:01
[4] = target: HLA-A*31:01
[5] = target: HLA-A*03:01
[6] = source organism: Vaccinia virus WR
[7] = source organism: Mammarenavirus lassaense
[8] = source organism: Dengue virus 4 Philippines/H241/1956
[9] = source organism: SARS coronavirus Tor2
[10] = source organism: Mammarenavirus guanaritoense
[11] = source organism: Lassa virus Josiah
[12] = source organism: Dengue virus 3 Martinique/1243/1999
[13] = source organism: Dengue virus 2 Jamaica/1409/1983
[14] = source organism: Lymphocytic choriomeningitis virus (strain Armstrong)
[15] = source organism: Dengue virus 1 Singapore/S275/1990
[16] = source organism: Mammarenavirus whitewaterense
[17] = source organism: Dengue virus 1 Brazil/97-11/1997
[18] = source organism: Dengue virus 2 Peru/IQT2913/1996

ISIISIRPR
Kd [1, 6]: 43.4 nM
Kd [2, 6]: 263 nM
Kd [3, 6]: 701 nM
Kd [4, 6]: 3.69 nM
Kd [5, 6]: ≥ 24100 nM

ISSVLTILYY
Kd [1, 6]: 162 nM
Kd [2, 6]: 155 nM
Kd [3, 6]: 1430 nM
Kd [4, 6]: 5890 nM
Kd [5, 6]: 561 nM

ITDNGPMPY
Kd [1, 6]: 2470 nM
Kd [2, 6]: 7.31 nM
Kd [3, 6]: 1600 nM
Kd [4, 6]: 1200 nM
Kd [5, 6]: 5020 nM

ITFFQEVPH
Kd [1, 7]: 72.5 nM
Kd [2, 7]: 197 nM
Kd [3, 7]: ≥ 77700 nM
Kd [4, 7]: 8040 nM
Kd [5, 7]: 10800 nM

ITPTIEDDK
Kd [1, 6]: 528 nM
Kd [2, 6]: 6560 nM
Kd [3, 6]: ≥ 77700 nM
Kd [4, 6]: ≥ 77900 nM
Kd [5, 6]: ≥ 78000 nM

IVPEFAKQY
Kd [1, 6]: 9120 nM
Kd [2, 6]: 11800 nM
Kd [3, 6]: ≥ 42900 nM
Kd [4, 6]: ≥ 21300 nM
Kd [5, 6]: ≥ 28200 nM

IVTDLENRLK
Kd [1, 6]: 310 nM
Kd [2, 6]: 309 nM
Kd [3, 6]: ≥ 26700 nM
Kd [4, 6]: 548 nM
Kd [5, 6]: 25.4 nM

IVTFRERYSY
Kd [1, 6]: 1020 nM
Kd [2, 6]: 144 nM
Kd [3, 6]: 14300 nM
Kd [4, 6]: 194 nM
Kd [5, 6]: 469 nM

IVTVTTKDY
Kd [1, 6]: 1690 nM
Kd [2, 6]: ≥ 32600 nM
Kd [3, 6]: 18400 nM
Kd [4, 6]: 8980 nM
Kd [5, 6]: 1930 nM

KAPNVISSK
Kd [1, 6]: 155 nM
Kd [2, 6]: 7.02 nM
Kd [3, 6]: ≥ 22600 nM
Kd [4, 6]: 175 nM
Kd [5, 6]: 1.89 nM

KFQPESPAR
Kd [4, 8]: 64.2 nM

KFYGPFVDR
Kd [1, 9]: 3260 nM
Kd [2, 9]: 1420 nM
Kd [3, 9]: 2040 nM
Kd [4, 9]: 0.454 nM
Kd [5, 9]: 7680 nM

KGLGHDFLR
Kd [1, 10]: ≥ 21600 nM
Kd [3, 10]: ≥ 77700 nM
Kd [4, 10]: 0.134 nM

KISVQYNLSH
Kd [2, 11]: 203 nM

KLSSIKSKSR
Kd [1, 6]: 18600 nM
Kd [2, 6]: 9910 nM
Kd [3, 6]: ≥ 27700 nM
Kd [4, 6]: 104 nM
Kd [5, 6]: 514 nM

KQIRSAAKK
Kd [1, 9]: 1330 nM
Kd [2, 9]: 73.7 nM
Kd [3, 9]: ≥ 77700 nM
Kd [4, 9]: 1080 nM
Kd [5, 9]: 43.1 nM

KQMYKTPTLK
Kd [1, 9]: 8220 nM
Kd [2, 9]: 17.5 nM
Kd [3, 9]: 11400 nM
Kd [4, 9]: 95.3 nM
Kd [5, 9]: 2.31 nM

KSGAIKVLK
Kd [2, 12]: 150 nM
Kd [4, 12]: 8.84 nM
Kd [5, 12]: 104 nM

KTKISVEKIK
Kd [1, 6]: ≥ 24700 nM
Kd [2, 6]: 275 nM
Kd [3, 6]: ≥ 70000 nM
Kd [4, 6]: 818 nM
Kd [5, 6]: 4200 nM

KTVWFVPSIK
Kd [2, 13]: 59.2 nM
Kd [5, 13]: 6.64 nM

KVAGFAKFLK
Kd [1, 9]: 11.8 nM
Kd [2, 9]: 10.8 nM
Kd [3, 9]: 3180 nM
Kd [4, 9]: 31.8 nM
Kd [5, 9]: 8.52 nM

KVILSEISFH
Kd [1, 14]: 12700 nM
Kd [2, 14]: 812 nM
Kd [3, 14]: 16400 nM
Kd [4, 14]: 2070 nM
Kd [5, 14]: 1370 nM

LAMGIMILK
Kd [1, 15]: 30.6 nM
Kd [2, 15]: 9.52 nM
Kd [5, 15]: 26.3 nM

LFYVSSIFLH
Kd [1, 16]: 980 nM
Kd [2, 16]: 2240 nM
Kd [3, 16]: 73.7 nM
Kd [4, 16]: 319 nM
Kd [5, 16]: 6040 nM

LILCFTIKR
Kd [1, 9]: 1410 nM
Kd [2, 9]: 231 nM
Kd [3, 9]: 7030 nM
Kd [4, 9]: 9010 nM
Kd [5, 9]: 1400 nM

LLHCVTESYK
Kd [1, 6]: 23.6 nM
Kd [2, 6]: 128 nM
Kd [3, 6]: 3270 nM
Kd [4, 6]: 207 nM
Kd [5, 6]: 14.7 nM

LLRALRLTK
Kd [1, 9]: ≥ 59900 nM
Kd [2, 9]: 3860 nM
Kd [3, 9]: ≥ 23900 nM
Kd [4, 9]: 851 nM
Kd [5, 9]: 24.4 nM

LSCTKNNSHH
Kd [1, 11]: ≥ 37400 nM
Kd [2, 11]: ≥ 63800 nM
Kd [3, 11]: ≥ 70000 nM
Kd [4, 11]: ≥ 70000 nM
Kd [5, 11]: ≥ 70000 nM

LSSKGLACY
Kd [1, 6]: 8340 nM
Kd [2, 6]: 5490 nM
Kd [3, 6]: ≥ 77700 nM
Kd [4, 6]: 13300 nM
Kd [5, 6]: 777 nM

LSYVIGLLPH
Kd [1, 10]: ≥ 70100 nM
Kd [2, 10]: ≥ 35800 nM
Kd [3, 10]: ≥ 70000 nM
Kd [4, 10]: 8940 nM
Kd [5, 10]: 2260 nM

MALFLEEMLR
Kd [1, 13]: 11.8 nM
Kd [3, 13]: 27.2 nM
Kd [4, 13]: 19.6 nM

MFAVGLLFR
Kd [1, 17]: 61.9 nM
Kd [3, 17]: 1.05 nM
Kd [4, 17]: ≥ 66700 nM

MGANFRADR
Kd [1, 17]: 17 nM

MSYSMCTGK
Kd [1, 13]: 81.8 nM
Kd [2, 13]: 34.2 nM
Kd [5, 13]: 4.21 nM

NKKPRICTR
Kd [3, 17]: 2970 nM

QTVGPWHLGK
Kd [2, 8]: 37.8 nM

RMLINRFTMR
Kd [3, 18]: 162 nM
Kd [4, 18]: 14.3 nM
Kd [5, 18]: 86.6 nM

RTLGRNKRPR
Kd ([4]; source organism: Dengue virus 3 Sri Lanka/1266/2000): 6.81 nM

RVSTGSQLAK
Kd [2, 17]: 75.7 nM
Kd [5, 17]: 75.5 nM

SLLGSALLK
Kd [2, 8]: 21.3 nM
Kd [5, 8]: 3.47 nM

SMFEPEREK
Kd [2, 13]: 1140 nM
Kd [5, 13]: 83.6 nM

SMLNIMNRR
Kd [3, 17]: 68.3 nM
Kd [4, 17]: 1.54 nM

TLITGNMSFR
Kd [1, 13]: 12.3 nM
Kd [3, 13]: 289 nM

VLLGSFGCK
Kd [5, 17]: 11.9 nM

VSTVQQLTK
Kd [2, 13]: 604 nM

VYTQLCDHR
Kd [3, 12]: 1900 nM
